# Measured values from paper PMC10268227 (Nature structural & molecular biology, 2023).
# T1: human DNA polymerase α catalytic subunit p180 with the N-terminus (residues 1–334) deleted (human, UniProt P09884 335-1462)
# T1 sequence (looked up): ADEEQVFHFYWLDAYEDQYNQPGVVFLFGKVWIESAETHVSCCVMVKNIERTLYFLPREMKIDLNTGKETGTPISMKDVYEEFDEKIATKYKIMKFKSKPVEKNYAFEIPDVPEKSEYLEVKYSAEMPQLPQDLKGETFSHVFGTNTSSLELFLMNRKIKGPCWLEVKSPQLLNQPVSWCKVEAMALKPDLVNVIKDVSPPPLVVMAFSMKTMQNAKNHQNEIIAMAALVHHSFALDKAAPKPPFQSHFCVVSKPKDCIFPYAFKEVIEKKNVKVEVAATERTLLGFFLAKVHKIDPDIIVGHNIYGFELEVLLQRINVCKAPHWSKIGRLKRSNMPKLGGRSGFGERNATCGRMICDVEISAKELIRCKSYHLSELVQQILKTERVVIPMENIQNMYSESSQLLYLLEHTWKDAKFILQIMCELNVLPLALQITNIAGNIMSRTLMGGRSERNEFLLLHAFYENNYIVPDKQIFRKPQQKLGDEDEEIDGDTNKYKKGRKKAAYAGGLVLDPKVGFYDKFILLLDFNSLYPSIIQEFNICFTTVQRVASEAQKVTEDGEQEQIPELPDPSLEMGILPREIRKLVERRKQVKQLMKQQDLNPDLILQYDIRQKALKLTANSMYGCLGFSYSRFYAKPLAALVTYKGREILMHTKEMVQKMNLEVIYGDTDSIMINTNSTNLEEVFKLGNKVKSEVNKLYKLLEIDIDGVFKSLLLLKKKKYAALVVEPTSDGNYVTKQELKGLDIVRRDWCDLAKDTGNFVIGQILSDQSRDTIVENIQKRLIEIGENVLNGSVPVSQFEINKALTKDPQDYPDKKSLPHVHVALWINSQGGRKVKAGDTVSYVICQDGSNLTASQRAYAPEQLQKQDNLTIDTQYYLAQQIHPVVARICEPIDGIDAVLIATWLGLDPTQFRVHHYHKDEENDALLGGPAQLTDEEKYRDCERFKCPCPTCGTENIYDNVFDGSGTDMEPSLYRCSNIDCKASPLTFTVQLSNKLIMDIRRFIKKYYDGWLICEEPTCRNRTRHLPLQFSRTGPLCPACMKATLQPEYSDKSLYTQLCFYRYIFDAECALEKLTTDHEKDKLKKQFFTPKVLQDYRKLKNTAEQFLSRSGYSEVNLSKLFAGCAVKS
# B1: human DNA polymerase α accessory subunit p70 (natural protein, UniProt Q14181 1-598, looked up)
# chain: MSASAQQLAEELQIFGLDCEEALIEKLVELCVQYGQNEEGMVGELIAFCTSTHKVGLTSEILNSFEHEFLSKRLSKARHSTCKDSGHAGARDIVSIQELIEVEEEEEILLNSYTTPSKGSQKRAISTPETPLTKRSVSTRSPHQLLSPSSFSPSATPSQKYNSRSNRGEVVTSFGLAQGVSWSGRGGAGNISLKVLGCPEALTGSYKSMFQKLPDIREVLTCKIEELGSELKEHYKIEAFTPLLAPAQEPVTLLGQIGCDSNGKLNNKSVILEGDREHSSGAQIPVDLSELKEYSLFPGQVVIMEGINTTGRKLVATKLYEGVPLPFYQPTEEDADFEQSMVLVACGPYTTSDSITYDPLLDLIAVINHDRPDVCILFGPFLDAKHEQVENCLLTSPFEDIFKQCLRTIIEGTRSSGSHLVFVPSLRDVHHEPVYPQPPFSYSDLSREDKKQVQFVSEPCSLSINGVIFGLTSTDLLFHLGAEEISSSSGTSDRFSRILKHILTQRSYYPLYPPQEDMAIDYESFYVYAQLPVTPDVLIIPSELRYFVKDVLGCVCVNPGRLTKGQVGGTFARLYLRRPAADGAERQSPCIAVQVVRI
# Target: T1, human DNA polymerase α catalytic …
# Test: cryo-EM structure
binder,measurement,value
B1,binding result,binds
